Molecular target: murine CIZ1 C-terminal fragment C181 (terminal 181 amino-acids) (mouse)
Assay: SEC-MALS

Which stoichiometry N does the source give for “murine CIZ1 C-terminal fragment C181 (terminal 181 amino-acids) (domain or fragment)” here?
The stoichiometry N was 2.

Reference: article doi:10.1101/2023.09.22.558821
